How the values were obtained:
[1] = target: 391-2-DS-Cav1-BZGJ9deleteFS; assay: ELISA, variant from culture supernatant on Ni-NTA plate [continued]
[2] = target: RB94 sc9 DS-CAV1 N183GC-N428C L373R; assay: ELISA, variant from culture supernatant on Ni-NTA plate
[3] = target: 391-2-DS-Cav1-sc9 99C-362C; assay: as above
[4] = target: 391-2-DS-Cav1_ sc9_I28C-G464C; assay: as above
[5] = target: 391-2-DS-Cav1-sc9deleteFS 98C-362C; assay: as above
[6] = target: 391-2-DS-Cav1-sc9 99C-361C; assay: as above
[7] = target: RB94 sc9 DS-CAV1 N183GC-N428C L373R Long K226L; assay: as above
[8] = target: 391-2 sc9 DS-Cav1 98C-362C; assay: as above
[9] = target: RB94 sc9 DS-CAV1 N183GC-N428C L373R Long; assay: as above
[10] = target: 391-2-DS-Cav1-sc9 100C-362C; assay: as above

Q: With D25 antibody as the substance, how does the ELISA binding value [1] read?
A: 0.119

Q: And the ELISA binding value [2]?
A: 0.187

Q: And the ELISA binding value [3]?
A: 0.249

Q: What about the ELISA binding value [4] of the same substance?
A: 0.202

Q: What about the ELISA binding value [5] of the same substance?
A: 0.362

Q: What about the ELISA binding value [6] of the same substance?
A: 0.225

Q: What about the ELISA binding value [7] of the same substance?
A: 0.206

Q: What about the ELISA binding value [8] of the same substance?
A: 0.433

Q: And the ELISA binding value [9]?
A: 0.26

Q: And the ELISA binding value [10]?
A: 0.274

From patent US20190330277A1
